Laboratory results from IntAct's records for PubMed 10393177.

B1: Stress-activated protein kinase jnk-1 (Caenorhabditis elegans), Q8WQG9 (parent)
chain: MEERLSTTSSYPSHPGRSVEEDHNTLLASSSISSIIRGTRGHLNNFIESVGNWLVPSSSGRDDDAVSLDSCQSVYSPVRHHINSGTGGGILMEPSSIHVPENYYSVTIGEAQMVVLKRYQNLRLIGSGAQGIVCSAFDTVRNEQVAIKKLSRPFQNVTHAKRAYRELKLMSLVNHKNIIGILNCFTPQKKLDEFNDLYIVMELMDANLCQVIQMDLDHERLSYLLYQMLCGIRHLHSAGIIHRDLKPSNIVVRSDCTLKILDFGLARTAIEAFMMTPYVVTRYYRAPEVILGMGYKENVDVWSIGCIFGELIRGRVLFPGGDHIDQWTRIIEQLGTPDRSFLERLQPTVRNYVENRPRYQATPFEVLFSDNMFPMTADSSRLTGAQARDLLSRMLVIDPERRISVDDALRHPYVNVWFDEIEVYAPPPLPYDHNMDVEQNVDSWREHIFRELTDYARTHDIYS

Variants of: B1
Conditions: with jun_human JUN

Variant	effect of a mutation on the interaction
K148R	disrupting interaction
